This note sets out measurements from US20220332804A1 (CSL INNOVATION, published 2022).

What all share (assay): SPR, KD relative to WT C2;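 further: biacore SPR at 37 °C, anti-C2 mAbs captured on anti-human IgG chips with alanine or serine point mutants of C2 as analyte, KD from 1:1 fit compared with wild-type C2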
In general terms: Surface plasmon resonance follows binding to a sensor surface in real time, without labels.

One experiment concerns the target T1, human C2 A436S (human, UniProt P06681 21-752).
T1 sequence: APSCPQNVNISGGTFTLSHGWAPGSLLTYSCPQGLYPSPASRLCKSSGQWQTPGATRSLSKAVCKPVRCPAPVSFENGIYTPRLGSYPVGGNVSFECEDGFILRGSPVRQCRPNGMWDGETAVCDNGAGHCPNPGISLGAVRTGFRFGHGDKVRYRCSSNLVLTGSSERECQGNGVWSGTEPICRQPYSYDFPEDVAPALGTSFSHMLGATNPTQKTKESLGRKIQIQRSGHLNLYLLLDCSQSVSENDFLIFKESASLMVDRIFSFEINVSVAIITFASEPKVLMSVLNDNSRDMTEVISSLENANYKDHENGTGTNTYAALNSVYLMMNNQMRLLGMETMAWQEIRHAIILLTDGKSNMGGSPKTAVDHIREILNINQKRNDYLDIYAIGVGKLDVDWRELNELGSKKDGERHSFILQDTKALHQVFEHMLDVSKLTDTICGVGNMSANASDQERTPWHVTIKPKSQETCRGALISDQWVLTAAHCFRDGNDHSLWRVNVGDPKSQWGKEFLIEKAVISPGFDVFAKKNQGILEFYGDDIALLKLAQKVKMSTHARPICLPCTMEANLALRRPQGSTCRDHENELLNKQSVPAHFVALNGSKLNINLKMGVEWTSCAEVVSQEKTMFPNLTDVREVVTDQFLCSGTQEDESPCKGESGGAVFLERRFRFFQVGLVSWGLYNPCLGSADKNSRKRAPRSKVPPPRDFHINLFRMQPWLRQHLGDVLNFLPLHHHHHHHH

The target of a further experiment is T2, human C2 I438A (human, UniProt P06681 21-752).
T2 sequence: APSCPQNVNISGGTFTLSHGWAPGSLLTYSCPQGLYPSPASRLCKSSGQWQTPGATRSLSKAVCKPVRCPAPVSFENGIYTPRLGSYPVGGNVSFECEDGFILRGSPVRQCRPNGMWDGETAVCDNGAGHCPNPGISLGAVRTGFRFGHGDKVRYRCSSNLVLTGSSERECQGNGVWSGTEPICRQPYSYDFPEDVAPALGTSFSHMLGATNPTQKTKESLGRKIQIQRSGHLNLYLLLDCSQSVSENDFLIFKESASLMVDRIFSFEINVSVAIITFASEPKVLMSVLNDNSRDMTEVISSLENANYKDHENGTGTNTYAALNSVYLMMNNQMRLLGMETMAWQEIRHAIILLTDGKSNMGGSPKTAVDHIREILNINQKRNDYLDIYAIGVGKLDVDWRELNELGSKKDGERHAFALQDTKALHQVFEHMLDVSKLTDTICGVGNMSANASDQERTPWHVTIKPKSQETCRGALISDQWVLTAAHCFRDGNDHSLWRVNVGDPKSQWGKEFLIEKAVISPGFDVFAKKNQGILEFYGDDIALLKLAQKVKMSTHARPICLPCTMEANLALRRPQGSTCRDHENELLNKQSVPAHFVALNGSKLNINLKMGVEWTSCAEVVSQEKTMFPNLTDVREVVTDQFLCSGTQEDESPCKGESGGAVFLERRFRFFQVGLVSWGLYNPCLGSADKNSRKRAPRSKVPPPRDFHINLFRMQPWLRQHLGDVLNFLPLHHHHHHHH

The target of a further experiment is T3, human C2 S469A (human, UniProt P06681 21-752).
T3 sequence: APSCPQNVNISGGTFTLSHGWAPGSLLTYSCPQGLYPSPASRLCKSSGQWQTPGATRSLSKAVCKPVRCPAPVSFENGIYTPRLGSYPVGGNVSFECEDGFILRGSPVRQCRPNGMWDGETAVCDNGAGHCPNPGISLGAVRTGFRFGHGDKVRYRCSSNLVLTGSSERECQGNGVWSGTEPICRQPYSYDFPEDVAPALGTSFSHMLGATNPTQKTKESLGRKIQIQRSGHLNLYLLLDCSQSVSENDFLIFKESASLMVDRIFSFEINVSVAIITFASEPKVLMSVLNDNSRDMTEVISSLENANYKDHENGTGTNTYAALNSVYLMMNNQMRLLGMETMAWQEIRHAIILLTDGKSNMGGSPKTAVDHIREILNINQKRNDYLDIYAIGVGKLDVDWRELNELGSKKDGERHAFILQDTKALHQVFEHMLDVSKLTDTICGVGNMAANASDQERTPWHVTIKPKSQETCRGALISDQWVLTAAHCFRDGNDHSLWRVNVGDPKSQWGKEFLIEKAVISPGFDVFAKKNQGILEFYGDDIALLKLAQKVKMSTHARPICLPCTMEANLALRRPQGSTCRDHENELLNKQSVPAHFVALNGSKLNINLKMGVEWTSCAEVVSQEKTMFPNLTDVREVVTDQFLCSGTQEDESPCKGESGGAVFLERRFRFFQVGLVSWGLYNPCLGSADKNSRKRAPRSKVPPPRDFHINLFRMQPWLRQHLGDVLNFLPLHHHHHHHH

A further experiment has as its target T4, human C2 R493A (human, UniProt P06681 21-752).
T4 sequence: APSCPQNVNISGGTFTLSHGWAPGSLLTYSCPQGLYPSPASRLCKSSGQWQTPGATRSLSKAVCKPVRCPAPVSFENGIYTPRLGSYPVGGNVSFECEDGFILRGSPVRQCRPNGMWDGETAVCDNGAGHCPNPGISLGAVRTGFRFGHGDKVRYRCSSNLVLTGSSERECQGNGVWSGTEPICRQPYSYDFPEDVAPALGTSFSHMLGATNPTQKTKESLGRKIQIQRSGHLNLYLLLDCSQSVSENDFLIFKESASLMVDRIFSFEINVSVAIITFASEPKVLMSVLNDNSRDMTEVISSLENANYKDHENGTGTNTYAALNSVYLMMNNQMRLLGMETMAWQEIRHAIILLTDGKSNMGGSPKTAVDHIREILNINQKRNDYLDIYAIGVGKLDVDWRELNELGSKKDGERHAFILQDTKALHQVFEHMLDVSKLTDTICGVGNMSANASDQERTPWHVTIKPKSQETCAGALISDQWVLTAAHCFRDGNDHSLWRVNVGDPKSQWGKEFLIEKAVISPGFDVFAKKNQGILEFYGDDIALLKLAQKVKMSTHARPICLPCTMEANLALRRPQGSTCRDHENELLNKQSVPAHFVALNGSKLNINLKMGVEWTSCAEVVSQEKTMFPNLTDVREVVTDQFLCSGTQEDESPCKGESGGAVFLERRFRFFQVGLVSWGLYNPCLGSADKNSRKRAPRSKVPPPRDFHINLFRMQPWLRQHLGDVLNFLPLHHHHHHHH

B1: RF16-242 (antibody, human IgG4 S228P, lambda, V domains shown)
VH: EVQLLQSGAEVKKPGESLKISCKGSGYSFTSYWIGWVRQMPGKGLEWMGIIYPGDSDTRYSPSFQGQVTISADKSISTAYLQWSSLKASDTAMYYCARRGHYGDYFDYWGQGTLVTVSS
VL: SYELTQPPSVSVSPGQTARITCSGDALPKKYAYWYHQKSGQAPVLVIYEDRRRPSEIPERFSGSSSGTMATLTITGAQVEDEGVYFCYSRDRAGNQRVFGGGTQLTVLG
notes: pH-dependent anti-C2 antibody from a phage display library
With B1, the Fold diff in the experiment with human C2 A436S stood at 1 fold; with human C2 I438A, 1 fold; with human C2 S469A, 3 fold; with human C2 R493A, 1 fold.
